From publication doi:10.1101/2022.06.26.497646

Target: complex III dimer (CIII2, cytochrome bc1 complex) of Tetrahymena thermophila (Tetrahymena thermophila (endogenous))
Test: cryo-EM structure

- stoichiometry N: 2
Substance: complex III dimer (CIII2, cytochrome bc1 complex) of Tetrahymena thermophila
